B1: PLAGL1 (parent)
chain: EKPPSGTKEKKHQCDHCERCFYTR

Variants of: B1
Experiment: protein stability index of a GFP-peptide fusion (GPS, HEK-293T) (PSI 1-6); higher = more stable
Details: c terminus: a fixed tail appended
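Also: lentivirally expressed fusions sorted by FACS into six bins by GFP to DsRed ratio, PSI derived from sequencing read proportions per bin multiplied by bin number.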

Question: Which protein stability index does the source give for EKPPSGTKEKIHQCDHCERCFYTR [K11I] here?
Answer: 3.71

Question: Which protein stability index does the source give for EKPPSGTKEKAHQCDHCERCFYTR [K11A] here?
Answer: 3.73

Question: Which protein stability index does the source give for EKPPSGTKEKPHQCDHCERCFYTR [K11P] here?
Answer: 3.59

Question: For EKPPSGTKEKFHQCDHCERCFYTR [K11F], which protein stability index is on record?
Answer: 3.67

Question: For EKPPSGTKEKLHQCDHCERCFYTR [K11L], which protein stability index is on record?
Answer: 3.97

Question: With EKPPSGTKEKGHQCDHCERCFYTR [K11G] as the variant, how does the protein stability index read?
Answer: 4.29

Question: For EKPPSGTKEKMHQCDHCERCFYTR [K11M], which protein stability index is on record?
Answer: 4.04

Question: For EKPPSGTKEKQHQCDHCERCFYTR [K11Q], which protein stability index is on record?
Answer: 4.28

Question: Which protein stability index does the source give for EKPPSGTKEKEHQCDHCERCFYTR [K11E] here?
Answer: 4.6

Question: With EKPPSGTKEKDHQCDHCERCFYTR [K11D] as the variant, how does the protein stability index read?
Answer: 4.99

Question: With EKPPSGTKEKVHQCDHCERCFYTR [K11V] as the variant, how does the protein stability index read?
Answer: 3.86

Question: With EKPPSGTKEKHHQCDHCERCFYTR [K11H] as the variant, how does the protein stability index read?
Answer: 4.06

Question: For EKPPSGTKEKTHQCDHCERCFYTR [K11T], which protein stability index is on record?
Answer: 3.84

Question: For EKPPSGTKEKWHQCDHCERCFYTR [K11W], which protein stability index is on record?
Answer: 4.32

Question: For EKPPSGTKEKSHQCDHCERCFYTR [K11S], which protein stability index is on record?
Answer: 3.79

Question: For EKPPSGTKEKYHQCDHCERCFYTR [K11Y], which protein stability index is on record?
Answer: 3.81

Question: With EKPPSGTKEKRHQCDHCERCFYTR [K11R] as the variant, how does the protein stability index read?
Answer: 3.71

Question: With EKPPSGTKEKNHQCDHCERCFYTR [K11N] as the variant, how does the protein stability index read?
Answer: 3.63

Question: With EKPPSGTKEWKHQCDHCERCFYTR [K10W] as the variant, how does the protein stability index read?
Answer: 3.55

Question: For EKPPSGTKEYKHQCDHCERCFYTR [K10Y], which protein stability index is on record?
Answer: 3.81

Question: With EKPPSGTKEKKHQCDHCSRCFYTR [E18S] as the variant, how does the protein stability index read?
Answer: 2.42

Question: For EKPPSGTKEKKHQCDHCGRCFYTR [E18G], which protein stability index is on record?
Answer: 3.22

Question: For EKPPSGTKEKKHQCDHCRRCFYTR [E18R], which protein stability index is on record?
Answer: 2.79

Question: With EKPPSGTKEKKHQCDHCWRCFYTR [E18W] as the variant, how does the protein stability index read?
Answer: 3.41

Question: Which protein stability index does the source give for EKPPSGTKEKKHQCDHCFRCFYTR [E18F] here?
Answer: 2.61

Question: With EKPPSGTKEKKHQCDHCPRCFYTR [E18P] as the variant, how does the protein stability index read?
Answer: 4.7

Question: Which protein stability index does the source give for EKPPSGTKEKKHQCDHCLRCFYTR [E18L] here?
Answer: 2.87

Question: With EKPPSGTKEKKHQCDHCARCFYTR [E18A] as the variant, how does the protein stability index read?
Answer: 3.18

Question: With EKPPSGTKEKKHQCDHCKRCFYTR [E18K] as the variant, how does the protein stability index read?
Answer: 2.58

Question: For EKPPSGTKEKKHQCDHCMRCFYTR [E18M], which protein stability index is on record?
Answer: 2.6

Question: With EKPPSGTKEKKHQCDHCYRCFYTR [E18Y] as the variant, how does the protein stability index read?
Answer: 2.92

Question: With EKPPSGTKEKKHQCDHCVRCFYTR [E18V] as the variant, how does the protein stability index read?
Answer: 4.66

Question: With EKPPSGTKEKKHQCDHCIRCFYTR [E18I] as the variant, how does the protein stability index read?
Answer: 2.63

Question: Which protein stability index does the source give for EKPPSGTKEKKHQCDHCQRCFYTR [E18Q] here?
Answer: 2.45

Question: Which protein stability index does the source give for EKPPSGTKEKKHQCDHCDRCFYTR [E18D] here?
Answer: 3.12

Question: Which protein stability index does the source give for EKPPSGTKEKKHQCDHCNRCFYTR [E18N] here?
Answer: 2.94

Question: For EKPPSGTKEKKHQCDHCTRCFYTR [E18T], which protein stability index is on record?
Answer: 3.62

Question: For EKPPSGTKEKKHQCDHCCRCFYTR [E18C], which protein stability index is on record?
Answer: 2.69

Question: Which protein stability index does the source give for EKPPSGTKEKKHQCDHCHRCFYTR [E18H] here?
Answer: 3.33

Question: For EKPPSGTKEKKHQCDYCERCFYTR [H16Y], which protein stability index is on record?
Answer: 2.59

Question: For EKPPSGTKEKKHQCDWCERCFYTR [H16W], which protein stability index is on record?
Answer: 2.9

Question: With EKPPSGTKEKKHQCDVCERCFYTR [H16V] as the variant, how does the protein stability index read?
Answer: 3.08

Question: For EKPPSGTKEKKHQCDICERCFYTR [H16I], which protein stability index is on record?
Answer: 2.76

Question: With EKPPSGTKEKKHQCDCCERCFYTR [H16C] as the variant, how does the protein stability index read?
Answer: 2.52

Question: With EKPPSGTKEKKHQCDLCERCFYTR [H16L] as the variant, how does the protein stability index read?
Answer: 3.51

Question: Which protein stability index does the source give for EKPPSGTKEKKHQCDPCERCFYTR [H16P] here?
Answer: 3.94

Question: For EKPPSGTKEKKHQCDFCERCFYTR [H16F], which protein stability index is on record?
Answer: 3.5

Question: With EKPPSGTKEKKHQCDNCERCFYTR [H16N] as the variant, how does the protein stability index read?
Answer: 4.72

Question: With EKPPSGTKEKKHQCDKCERCFYTR [H16K] as the variant, how does the protein stability index read?
Answer: 4.02

Question: For EKPPSGTKEKKHQCDSCERCFYTR [H16S], which protein stability index is on record?
Answer: 4.13

Question: With EKPPSGTKEKKHQCDTCERCFYTR [H16T] as the variant, how does the protein stability index read?
Answer: 3.66

Question: Which protein stability index does the source give for EKPPSGTKEKKHQCDECERCFYTR [H16E] here?
Answer: 4.17

Question: For EKPPSGTKEKKHQCDDCERCFYTR [H16D], which protein stability index is on record?
Answer: 4.02

Question: Which protein stability index does the source give for EKPPSGTKEKKHQCDMCERCFYTR [H16M] here?
Answer: 3.66

Question: With EKPPSGTKEKKHQCDACERCFYTR [H16A] as the variant, how does the protein stability index read?
Answer: 4.15

Question: For EKPPSGTKEKKHQCDRCERCFYTR [H16R], which protein stability index is on record?
Answer: 3.49

Question: With EKPPSGTKEKKHQCDGCERCFYTR [H16G] as the variant, how does the protein stability index read?
Answer: 4.67

Question: With EKPPSGTKEKKHQCDQCERCFYTR [H16Q] as the variant, how does the protein stability index read?
Answer: 3.82

Question: For EKPPSGTKEKKHDCDHCERCFYTR [Q13D], which protein stability index is on record?
Answer: 4.33

Question: For EKPPSGTKEKKHACDHCERCFYTR [Q13A], which protein stability index is on record?
Answer: 3.4

Question: For EKPPSGTKEKKHHCDHCERCFYTR [Q13H], which protein stability index is on record?
Answer: 3.28

Question: For EKPPSGTKEKKHCCDHCERCFYTR [Q13C], which protein stability index is on record?
Answer: 3.19

Question: Which protein stability index does the source give for EKPPSGTKEKKHRCDHCERCFYTR [Q13R] here?
Answer: 2.77

Question: Which protein stability index does the source give for EKPPSGTKEKKHVCDHCERCFYTR [Q13V] here?
Answer: 3.17

Question: Which protein stability index does the source give for EKPPSGTKEKKHICDHCERCFYTR [Q13I] here?
Answer: 3.21

Question: With EKPPSGTKEKKHSCDHCERCFYTR [Q13S] as the variant, how does the protein stability index read?
Answer: 3.25

Question: Which protein stability index does the source give for EKPPSGTKEKKHNCDHCERCFYTR [Q13N] here?
Answer: 3.74

Question: With EKPPSGTKEKKHWCDHCERCFYTR [Q13W] as the variant, how does the protein stability index read?
Answer: 2.8

Question: For EKPPSGTKEKKHMCDHCERCFYTR [Q13M], which protein stability index is on record?
Answer: 3.55

Question: Which protein stability index does the source give for EKPPSGTKEKKHPCDHCERCFYTR [Q13P] here?
Answer: 2.52

Question: With EKPPSGTKEKKHLCDHCERCFYTR [Q13L] as the variant, how does the protein stability index read?
Answer: 3.26

Question: For EKPPSGTKEKKHFCDHCERCFYTR [Q13F], which protein stability index is on record?
Answer: 3.2

Question: For EKPPSGTKEKKHYCDHCERCFYTR [Q13Y], which protein stability index is on record?
Answer: 2.73

Question: Which protein stability index does the source give for EKPPSGTKEKKHKCDHCERCFYTR [Q13K] here?
Answer: 3.67

Question: For EKPPSGTKEKKHGCDHCERCFYTR [Q13G], which protein stability index is on record?
Answer: 2.34

Question: For EKPPSGTKEKKHTCDHCERCFYTR [Q13T], which protein stability index is on record?
Answer: 3.29

Question: Which protein stability index does the source give for EKPPSGTKEKKHECDHCERCFYTR [Q13E] here?
Answer: 4.31

Question: For EKPPSGTKEKKHQCKHCERCFYTR [D15K], which protein stability index is on record?
Answer: 3.33

Question: For EKPPSGTKEKKHQCQHCERCFYTR [D15Q], which protein stability index is on record?
Answer: 2.7

Question: With EKPPSGTKEKKHQCWHCERCFYTR [D15W] as the variant, how does the protein stability index read?
Answer: 3.15

Question: With EKPPSGTKEKKHQCAHCERCFYTR [D15A] as the variant, how does the protein stability index read?
Answer: 3.75

Question: With EKPPSGTKEKKHQCMHCERCFYTR [D15M] as the variant, how does the protein stability index read?
Answer: 2.63

Question: With EKPPSGTKEKKHQCLHCERCFYTR [D15L] as the variant, how does the protein stability index read?
Answer: 2.91

Question: With EKPPSGTKEKKHQCNHCERCFYTR [D15N] as the variant, how does the protein stability index read?
Answer: 3.23

Question: With EKPPSGTKEKKHQCGHCERCFYTR [D15G] as the variant, how does the protein stability index read?
Answer: 4.38

Question: With EKPPSGTKEKKHQCFHCERCFYTR [D15F] as the variant, how does the protein stability index read?
Answer: 2.79

Question: Which protein stability index does the source give for EKPPSGTKEKKHQCVHCERCFYTR [D15V] here?
Answer: 2.68

Question: Which protein stability index does the source give for EKPPSGTKEKKHQCHHCERCFYTR [D15H] here?
Answer: 2.9

Question: With EKPPSGTKEKKHQCSHCERCFYTR [D15S] as the variant, how does the protein stability index read?
Answer: 3.29

Question: For EKPPSGTKEKKHQCIHCERCFYTR [D15I], which protein stability index is on record?
Answer: 2.55

Question: Which protein stability index does the source give for EKPPSGTKEKKHQCRHCERCFYTR [D15R] here?
Answer: 2.2

Question: Which protein stability index does the source give for EKPPSGTKEKKHQCEHCERCFYTR [D15E] here?
Answer: 3.18

Question: For EKPPSGTKEKKHQCTHCERCFYTR [D15T], which protein stability index is on record?
Answer: 3.37

Question: For EKPPSGTKEKKHQCYHCERCFYTR [D15Y], which protein stability index is on record?
Answer: 2.97

— the supplement of paper PMC10567573
